Tests used:
soluble CD4 = soluble CD4 (UniProt P01730); assay: SPR
CD4-Ig = assay: pull-down
[1] = molecular target: HIV-1YU2 gp41 transmembrane envelope glycoprotein (HIV-1 YU2) (UniProt P35961); assay: gp120-gp41 association index
CCR5 = CCR5 (UniProt P51681); assay: radioligand binding

Row | Substance | CD4-Ig binding (relative to wild type) (CD4-Ig) | association index (relative to wild type) [1] | also measured
1 | HIV-1YU2 gp120 L111F (natural protein) | – | – | Kd (soluble CD4): 13.3 nM; koff (soluble CD4): 0.000204 s⁻¹; kon (soluble CD4): 15300 M⁻¹ s⁻¹
2 | HIV-1YU2 gp120 I108A (natural protein) | 1.48 | – | –
3 | HIV-1YU2 gp120 A221G (natural protein) | 0.76 | – | –
4 | HIV-1YU2 gp120 T51A (natural protein) | 1.02 | 1.06 | –
5 | HIV-1YU2 gp120 W69L/S375W (natural protein) | 1.11 | 0.81 | Kd (soluble CD4): 0.846 nM; koff (soluble CD4): 9.98e-06 s⁻¹; kon (soluble CD4): 11800 M⁻¹ s⁻¹
6 | HIV-1YU2 gp120 D107Q (natural protein) | 0.69 | – | –
7 | HIV-1YU2 gp120 Q103A (natural protein) | 1.15 | 1.07 | –
8 | HIV-1YU2 gp120 L52A (natural protein) | 0.23 | 0.25 | –
9 | HIV-1YU2 gp120 Y61A (natural protein) | 1.33 | 0.89 | –
10 | HIV-1YU2 gp120 T71A (natural protein) | 0.85 | – | –
11 | HIV-1YU2 gp120 A60G (natural protein) | 1.46 | – | –
12 | HIV-1YU2 gp120 Q114N (natural protein) | 1.09 | 0.74 | –
13 | HIV-1YU2 gp120 D107A (natural protein) | 0.66 | – | fold reduction of CCR5 binding against wt gp120 (CCR5): 2 fold; Kd (soluble CD4): 74.3 nM; koff (soluble CD4): 0.00142 s⁻¹; kon (soluble CD4): 19100 M⁻¹ s⁻¹
14 | HIV-1YU2 gp120 F53A (natural protein) | 0.29 | 0.25 | –
15 | HIV-1YU2 gp120 L116A (natural protein) | 0.67 | – | –
16 | HIV-1YU2 gp120 W69L (natural protein) | 0.64 | 0.89 | fold reduction of CCR5 binding against wt gp120 (CCR5): 2 fold; Kd (soluble CD4): 54.2 nM; koff (soluble CD4): 0.000526 s⁻¹; kon (soluble CD4): 9690 M⁻¹ s⁻¹
17 | HIV-1YU2 gp120 T49A (natural protein) | 1.14 | 1.07 | –
18 | HIV-1YU2 gp120 W96A (natural protein) | 0.66 | 0.65 | –
19 | HIV-1YU2 gp120 Q82A (natural protein) | 1.12 | 1.03 | –
20 | HIV-1YU2 gp120 A73S (natural protein) | 1.19 | – | –
21 | HIV-1YU2 gp120 T63A (natural protein) | 1.79 | – | –
22 | HIV-1YU2 gp120 P212A (natural protein) | 0.65 | – | –
23 | HIV-1YU2 gp120 I109A (natural protein) | 0.49 | – | –
24 | HIV-1YU2 gp120 L111A/S375W (natural protein) | 1.32 | – | Kd (soluble CD4): 1.12 nM; koff (soluble CD4): 1.92e-05 s⁻¹; kon (soluble CD4): 17100 M⁻¹ s⁻¹
25 | HIV-1YU2 gp120 S375W (natural protein) | 1.12 | – | Kd (soluble CD4): 0.0469 nM; koff (soluble CD4): 6.49e-07 s⁻¹; kon (soluble CD4): 13800 M⁻¹ s⁻¹
26 | HIV-1YU2 gp120 D107A/S375W (natural protein) | 0.76 | 0.61 | –
27 | HIV-1YU2 gp120 L111W (natural protein) | – | – | Kd (soluble CD4): 621 nM; kon (soluble CD4): 2090 M⁻¹ s⁻¹

Row | Substance | CD4-Ig binding (relative to wild type) (CD4-Ig) | association index (relative to wild type) [1] | also measured
28 | HIV-1YU2 gp120 W69L/L111W (natural protein) | – | 0.28 | Kd (soluble CD4): 871 nM; koff (soluble CD4): 0.000483 s⁻¹; kon (soluble CD4): 554 M⁻¹ s⁻¹
29 | HIV-1YU2 gp120 D78A (natural protein) | 1.13 | – | –
30 | HIV-1YU2 gp120 V89A (natural protein) | 0.97 | – | –
31 | HIV-1YU2 gp120 Q103R (natural protein) | 0.74 | – | –
32 | HIV-1YU2 gp120 S115A (natural protein) | 1.36 | 1.12 | –
33 | HIV-1YU2 gp120 N99A (natural protein) | 0.97 | 0.7 | –
34 | HIV-1YU2 gp120 H66A/S375W (natural protein) | – | – | Kd (soluble CD4): 7.67 nM; koff (soluble CD4): 5.02e-06 s⁻¹; kon (soluble CD4): 655 M⁻¹ s⁻¹
35 | HIV-1YU2 gp120 S110W (natural protein) | – | 0.49 | –
36 | HIV-1YU2 gp120 E91A (natural protein) | 1.45 | – | –
37 | HIV-1YU2 gp120 N80A (natural protein) | 1.24 | 0.65 | –
38 | HIV-1YU2 gp120 exterior envelope glycoprotein, wild-type (from UniProt P35961 32-498) (natural protein) | 1 | – | –
39 | HIV-1YU2 gp120 D57A (natural protein) | 0.91 | 0.62 | –
40 | HIV-1YU2 gp120 W437R (natural protein) | – | 0.64 | –
41 | HIV-1YU2 gp120 W112A (natural protein) | 0.25 | – | –
42 | HIV-1YU2 gp120 P76A (natural protein) | 1.02 | 0.64 | –
43 | HIV-1YU2 gp120 F210A (natural protein) | – | 1.33 | –
44 | HIV-1YU2 gp120 V68A (natural protein) | 1.12 | – | –
45 | HIV-1YU2 gp120 H66A (natural protein) | – | – | Kd (soluble CD4): 172 nM; koff (soluble CD4): 0.000569 s⁻¹; kon (soluble CD4): 3320 M⁻¹ s⁻¹
46 | HIV-1YU2 gp120 E47A (natural protein) | – | 0.64 | –
47 | HIV-1YU2 gp120 H72A (natural protein) | 1.11 | – | –
48 | HIV-1YU2 gp120 F223A (natural protein) | 0.85 | – | –
49 | HIV-1YU2 gp120 L111A (natural protein) | – | 0.28 | fold reduction of CCR5 binding against wt gp120 (CCR5): 2 fold; Kd (soluble CD4): 32.3 nM; koff (soluble CD4): 0.000426 s⁻¹; kon (soluble CD4): 13200 M⁻¹ s⁻¹
50 | HIV-1YU2 gp120 P79A (natural protein) | 1.29 | 0.64 | –
51 | HIV-1YU2 gp120 D113A (natural protein) | 1.79 | – | –
52 | HIV-1YU2 gp120 T77A (natural protein) | 1.52 | – | –
53 | HIV-1YU2 gp120 M104A (natural protein) | 1.25 | – | –
54 | HIV-1YU2 gp120 S110N (natural protein) | – | 0.66 | –

— publication PMC2854584
